Target: the molecule itself
Assay: not stated; VelB heterologously expressed in Escherichia coli; data not shown

B1: VelB expressed in Escherichia coli (natural protein, Aspergillus nidulans, UniProt C8VTS4 1-369, looked up)
chain: MYAVEDRAHSGHHPPPLSMDRIPPPSTMYPSSAGPSAMVSPAGQPEPESLSTVHDGRIWSLQVVQQPIRARMCGFGDKDRRPITPPPCIRLIVKDAQTQKEVDINSLDSSFYVVMADLWNADGTHEVNLVKHSATSPSISTAMSSSYPPPPHPTSSDYPASYQTNPYGQPVGQPVGQPVGYAGVGNYYGGSTQLQYQNAYPNPQAQYYQPMYGGMAQPQMPAAQPVTPGPGGMFTRNLIGCLSASAYRLYDTEDKIGVWFVLQDLSVRTEGIFRLKFSFVNVGKSVSDLPQSDIAEVINKGTAPILASTFSEPFQVFSAKKFPGVIESTPLSKVFANQGIKIPIRKDGVKGQGSRGRHSDEDDGLDNEY
notes: VelB of Aspergillus nidulans, heterologously expressed; construct not described; neither the construct, its tags nor its purification are described; source: heterologous expression in Escherichia coli
stoichiometry N: 2
